Experimental data: patent publication US20090035281A1, “COMBINATION OF INTERLEUKIN-6 ANTAGONISTS AND ANTIPROLIFERATIVE DRUGS” (Universita Degli Studi "Magna Graecia" Di Catanzaro, priority 2005, published 2009)

B1: SANT-7: superantagonist of the IL-6 receptor, molecular variant of IL-6 totally incapable of binding gp130, sequence SEQ ID No. 4 (protein, listed as Homo sapiens)
chain: PVPPGEDSKDVAAPHRQPLTSSERIDKQIRDILDFISALRKETCNKSNMCESSKEADAFWNLNLPKMAEKDGCFYKGFNEETCLVKIITGLLEFEVYLEYLQNRFESSEEQARAVQMRTKDLIQFLQKKAKNLDAITTPDPTTNASLLTKLQAQNQWLQDMTTHLILRSFKEFLIRSLRALRAM

How the values were obtained:
[1] = system: human IL-6-dependent multiple myeloma (MM) cell line, INA-6; assay: Cell proliferation assay ([3H]-thymidine incorporation), INA-6 cells with exogenous IL-6; format: cell-based; settings: INA-6, exogenous IL-6 present, 3 days' exposure
Protocol: The formation, characterisation and in-vitro culturing of the IL-6-dependent human MM cell line INA-6 is described in Burger, R., et al.; Hematol. J., 2001; 2:42-53. The cells were maintained in RPMI 1640 culture medium (GIBCO, Grand Island, N.Y.) added with 10% foetal calf serum (FCS, Hyclone, Logan, Utah), L-glutamine 2 mM (GIBCO), 100 μg/ml of streptomycin (GIBCO) and 100 U/ml of penicillin (GIBCO) in the presence of 2.5 ng/ml of IL-6 at 37° C. in a 5% CO2 atmosphere
(§1) Cell proliferation was measured by incorporation of [^3H]-thymidine (NEN Life Science Products, Boston, Mass.). Cells (2×10^4 cells/well) were incubated on 96-well culture plates in the presence or absence of 70-80% confluent BMSC at 37° C. with or without the study substance (in wells in triplicate) for 72 h. [^3H]-thymidine (0.5 μCi) was then added to each well for at least 8 h. Cells were collected on glass filters with an automatic cell collector (Cambridge Technology, Cambridge, Mass.) and counted using a Micro-Beta Trilux counter (Wallac, Gaithersburgh, Md.).
(§2) IL-6 has been identified as one of the main factors in the growth and survival of MM cells. […] INA-6 cells were seeded and cultured on 96-well plates in the presence of exogenous IL-6, and then, after 3 days' exposure of the cells to the drugs, cell proliferation and apoptosis were determined.

[2] = system: human IL-6-dependent multiple myeloma (MM) cell line, INA-6; assay: Detection of apoptosis (annexin V-FITC / propidium iodide flow cytometry), INA-6 cells with exogenous IL-6; format: cell-based; settings: INA-6, exogenous IL-6 present, 3 days' exposure
Protocol: To detect the induction of cell death by apoptosis, double staining was performed with annexin V labelled with FITC and propidium iodide (PI). After treating 1×10^6 tumour cell for 48 h, the cells were washed with PBS and resuspended in 100 μl of HEPES buffer containing annexin V-FITC and propidium iodide (PI) (Annexin V-FLUOS staining kit; Roche Diagnostic, Indianapolis, Ind.). After 15 minutes' incubation at room temperature, the cells were analysed using a Coulter Epics XL flow cytometer to detect the presence of an apoptotic cell population staining positive for annexin V-FITC and negative for PI.
as §2, with “cells. INA-6 is a human myeloma cell line that requires exogenous IL-6 for growth in vitro (FIG. 1A).” for “cells.”

[3] = system: INA-6 cells adhering to bone marrow stromal cells (BMSC); assay: Cell proliferation of INA-6 cells adhering to BMSC, no exogenous IL-6; format: cell-based, human; settings: 70-80% confluent BMSC, no exogenous IL-6, 3 days after treatment
Protocol: as §1
Since the paracrine production of IL-6 occurs when the MM cells adhere to BMSC (Uchiyama, H., et al.; Blood, 1993; 82:3712-3720), the supporting effect of BMSC for the in-vitro growth of INA-6 cells after exposure to the drugs was evaluated. The INA-6 cells were seeded on 70-80% confluent BMSC, in the absence of exogenous IL-6, and the cell proliferation was established 3 days after the treatment.

[4] = system: INA-6 MM cells in human foetal bone implant; assay: SCID-hu INA-6 mouse model of human MM, tumour growth by serum shuIL-6R; format: in vivo; settings: for reduction in serum shuIL-6R (marker of tumour growth) vs control group: s.c., SANT-7 3.3 mg/kg or Dex 1 mg/kg alone, 5 consecutive days; for tolerability in SCID-hu mice: treatment with single agent
Protocol: Male SCID C-17 mice aged from six to eight weeks (Taconic Germany, N.Y.) were housed and monitored in our Animal Research Facility. All the experimental procedures and protocols were approved by the Institutional Committee on the Treatment and Use of Animals. Human foetal femur transplants were implanted in SCID (SCID-hu) mice, as described in Urashima, M., et al.; Blood, 1997; 90(2): 754-65; Tassone, P., et al.; Blood, 2004. Four weeks after implantation, 2.5×10^6 INA-6 MM cells in 50 μl of PBS were injected into the foetal bone implant in the SCID-hu hosts. Serum levels of the interleukin-6 soluble receptor (shuIL-6R) (R & D Systems Inc., Minneapolis, Minn.) were monitored in the mice.
(§3) In these mice serum shuIL-6R was measured as a marker of tumour growth and disease severity, since it is released by the INA-6 cells. First, the pharmacokinetics of SANT-7 was determined.

[5] = In-vivo kinetics of SANT-7 after s.c. injection; design: species or system SCID-hu mouse
Protocol: A) Sant-7 (3.3 mg/kg) was injected s.c. into a SCID-hu mouse and its kinetics was evaluated with serial determinations of IL-6 in serum. B) Tumour growth in SCID-hu mice implanted with INA-6 cells was monitored with serial measurements of shuIL-6R. […] P values were obtained by comparison between the control groups and the groups treated with the combination. The data were expressed as mean±SE.
as §3

purified CD34+ HPC = assay: Clonogenic progenitor assays in methylcellulose; format: cell-based, human; settings: for CFC-GM: SANT-7 200 ng/ml, Dex 10^-5 M; for Total: total colonies
Text: (§4) Peripheral blood mobilised CD34^+ HPC were isolated from leukapheresis products of patients with haematopoietic and non-haematopoietic tumours, treated with high-dose chemotherapy and G-CSF or GM-CSF. Peripheral blood mononuclear cells were obtained by centrifugation across a Ficoll density gradient (Seromed, Berlin, Germany), washed and submitted to positive selection using the CD34 Progenitor Cell Isolation Kit (Miltenyi Biotech, Bergish Gladbach, Germany). In brief, CD34^+ HPC were magnetically labelled indirectly using a primary monoclonal antibody conjugated with a hapten and an anti-hapten antibody coupled with MACS MicroBeads (Miltenyi). The labelled cells were subsequently enriched with the MiniMACS magnetic field.
The clonogenic progenitor assays were carried out in methylcellulose as described previously with minor modifications. In brief, 1×10^3 freshly isolated CD34^+ HCP were seeded in IMDM (GIBCO) containing 1% methylcellulose, 30% foetal calf serum (Hyclone), 1% bovin serum albumin (Sigma), L-glutamine 2 mM (GIBCO) and 2β-mercaptoethanol 10^−4 M (Stemcell Technologies Inc., Vancouver, Canada). To induce granulomonocytic or erythroid differentiation, the cells were stimulated with IL-3 (50 ng/ml), GM-CSF (100 ng/ml), G-CSF (100 ng/ml) or IL-3 (50 ng/ml), GM-CSF (100 ng/ml), SCF (50 ng/ml) ed Epo (3 U/ml), respectively. […] 1 ml aliquots were plated in triplicate on 35 mm culture plates (Falcon) at 37° C. in a 5% CO2 humidified atmosphere. After 14 days' culture, the granulomonocytic colonies (CFC-GM) and the erythroid colonies (BFU-E) were counted by examining the cultures under an inverted microscope.

[6] = system: human CD34+ Haematopoietic Progenitor Cells (HPC); assay: Liquid culture of CD34+ HPC, flow cytometric cell cycle (DNA content, PI) analysis; format: cell-based; settings: 6 days liquid culture with haemopoietins + IL-6
Text: as §4

[7] = single s.c. injection 3.3 mg/kg

Molecule | growth inhibition of MM cells [1] | death by apoptosis in MM cells [2] | growth inhibition of INA-6 cells adhering to BMSC [3] | reduction in serum shuIL-6R (marker of tumour growth) vs control group [4] | tolerability in SCID-hu mice [4] | time drug remains in circulation after the injection [5, 7] [h] | time to SANT-7 serum peak [5, 7] [min] | clearance ([5]; subcutaneous administration) | effect on generation of CFC-GM and BFU-E in response to haemopoietins (purified CD34+ HPC; CD34+ HPC, clonogenic assays) | CFC-GM (purified CD34+ HPC; colonies, IL3 + GM + G + IL6 (granulomonocytic differentiation), 1 × 10^3 cells/plate, day 14, mean ± SD) | CFC-GM (purified CD34+ HPC; colonies, IL3 + GM + SCF + Epo + IL6 (erythroid differentiation), 1 × 10^3 cells/plate, day 14, mean ± SD) | BFU-E (purified CD34+ HPC; colonies, IL3 + GM + SCF + Epo + IL6, 1 × 10^3 cells/plate, day 14, mean ± SD) | Total (purified CD34+ HPC; IL3 + GM + G + IL6, 1 × 10^3 cells/plate, day 14, mean ± SD) | Total (purified CD34+ HPC; IL3 + GM + SCF + Epo + IL6, 1 × 10^3 cells/plate, day 14, mean ± SD) | apoptosis rate of CD34+ cells [6] | effect on cell proliferation (cell cycle) of CD34+ cells [6]
C[C@@H]1C[C@H]2[C@@H]3CCC4=CC(=O)C=C[C@]4(C)[C@@]3(F)[C@@H](O)C[C@]2(C)[C@@]1(O)C(=O)CO [Dex, dexamethasone, reference compound] | neither modified cell proliferation | nor induced apoptosis | activity was inhibited | did not induce any significant reduction | well tolerated |  |  |  |  |  |  |  |  |  |  | 
B1 | high rates of growth inhibition | high rates | reduced the efficacy of the growth inhibition | did not induce any significant reduction | well tolerated | 4 | 30 | very rapid clearance | does not interfere appreciably | 73 ± 2 | 21 ± 1 | 50 ± 2 | 73 ± 2 | 71 ± 1 | No significant apoptosis rate | does not significantly affect cell proliferation
